Laboratory results from paper PMC4040282 (Physical chemistry chemical physics : PCCP, 2014).
Where a chain is given by its changes, count along the chain named. Names and notes keep the numbering of the source. Where two headings read alike, the source gives them in different places. Values belong to the binder of their own block, whether it stands above or below them.

Experiments:
[1] = biological target: (p50(248-350)/RelA(190-321)) heterodimer, biotinylated (murine, UniProt P25799 248-350; Q04207 190-321, biotin PEO maleimide (on the added N-terminal cysteine)); test: SPR
[2] = biological target: T1, N-terminal hexahistidine-NFκB (His6-p50(39-350)/RelA(19-321)) heterodimer (UniProt P25799 39-350; Q04207 19-321); test: stopped-flow fluorescence
[3] = biological target: T1, N-terminal hexahistidine-NFκB …; test: stopped-flow fluorescence; remark: listed apart in the source

Kd [1]: 172 ± 4 pM | kon [2]: 1.4e+07 M⁻¹ s⁻¹
B1: Human wild-type IκBα(67-287) (domain or fragment, UniProt P25963 67-287, looked up)
chain: KQQLTEDGDSFLHLAIIHEEKALTMEVIRQVKGDLAFLNFQNNLQQTPLHLAVITNQPEIAEALLGAGCDPELRDFRGNTPLHLACEQGCLASVGVLTQSCTTPHLHSILKATNYNGHTCLHLASIHGYLGIVELLVSLGADVNAQEPCNGRTALHLAVDLQNPDLVSLLLKCGADVNRVTYQGYSPYQLTWGRPSTRIQQQLGQLTLENLQMLPESEDEE

Kd [1]: 155 ± 14 pM | kon [3]: 3.8e+06 M⁻¹ s⁻¹ | kon [2]: 1.1e+07 M⁻¹ s⁻¹
B2: IκBα(67-287) E282W (domain or fragment, human, UniProt P25963 67-287, looked up)
chain: B1 chain with E216W

Kd [1]: 462 ± 8 pM | kon [2]: 1.4e+07 M⁻¹ s⁻¹
B3: IκBα(67-287) P261F (domain or fragment, human, UniProt P25963 67-287, looked up)
chain: B1 chain with P195F
